# Experimental data taken from article PMC12393466 (2025).
# No end group written: not given here.
# T1: P01.1 peptide
# T1 chain: KKIVTILKKLVK
# T2: P01.3 peptide
# T2 chain: KKIVEILKKLVK
# How the values were obtained:
# [1] = target: T1, P01.1 peptide; assay: concentration-dependent circular dichroism (222 nm, 40% TFE)
# [2] = target: T2, P01.3 peptide; assay: as above
Binder,Kd [1],Kd [2]
KKIVTILKKLVK-NH2 [P01.1 peptide],769 µM,
Ac-KKIVEILKKLVK-NH2 [P01.3 peptide],,51.5 µM
